The supplement of paper PMC9170038

System: MS2 coat protein
Test: apparent KD of MS2 coat protein; designed switch direction (-1 OFF switch, 1 ON switch): 1; higher = weaker reporter binding
Summary of the method: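 Transcription of designed RNA switches on Illumina chips was done by stalled E. coli RNA polymerase. SNAP-549-labelled MS2 coat protein was then titrated in doubling steps from 0.7 or 1.5 nM to 3 µM, with steps of 0.8–1.5 h at the lowest and 10–20 min at the highest concentration. The per-design median over clusters of curve-fitted normalised fluorescence is reported as apparent KD.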

[1] = Eterna round: R95, input ligand: FMN 200 uM
[2] = Eterna round: R95, input ligand: microRNA oligo, concentration not stated
[3] = Eterna round: R95, input ligand: none
[4] = input ligand: microRNA oligo, concentration not stated

## UGAAUACAUGAGGAUCACCCAUGUCAACGUAGUCGAGGAUAUGGGCAGCCGUGAGGCGUACCAGAAGGCGAAGAGG [Mat - Same State 1 - Mod of JL - D4] (puzzle: Same State 1)
[1]
  apparent KD of MS2 coat protein: 40.4 nM
[2]
  apparent KD of MS2 coat protein: 88.8 nM
[3]
  apparent KD of MS2 coat protein: 132 nM

## UGAAUAGUGAUAGGAUAUACAUGAGGAAUCCUCGUAGAAGGAUCAUAACAUGAGGAUCACCCAUGUAGCGCUCGAAAGAGCGCA [Mat - Same State NG 1 - JL mod - D55] (Eterna round: R96, puzzle: Same State NG 1)
Input ligand: FMN 200 uM
  apparent KD of MS2 coat protein: 244 nM
[4]
  apparent KD of MS2 coat protein: 207 nM
Input ligand: none
  apparent KD of MS2 coat protein: 56.5 nM

## UGAAUAGUUACAGGAUAUCAUGCGAAAAUUGCGUGAGAAGGGUGGGUGUUGUGCGCUAAGUGCUACAUGAGGAUCACCCAUGUU [SameState NG1 #37] (Eterna round: R96, puzzle: Same State NG 1)
Input ligand: FMN 200 uM
  apparent KD of MS2 coat protein: 325 nM
[4]
  apparent KD of MS2 coat protein: 28.8 nM
Input ligand: none
  apparent KD of MS2 coat protein: 213 nM

## UGAAUAGUUACAGGAUAUGAGCCGAAAAUUGGGUCAGAAGGGUGGGUGUUUUGCGCUAUGUGCUACAUGAGGAUCACCCAUGUU [SameState NG1 #34] (Eterna round: R96, puzzle: Same State NG 1)
Input ligand: FMN 200 uM
  apparent KD of MS2 coat protein: 888 nM
[4]
  apparent KD of MS2 coat protein: 268 nM
Input ligand: none
  apparent KD of MS2 coat protein: 338 nM

## UGAAUGGUGAUAGGAUAUACAUGAGGAAUCCUCGUAGAAGGAUCACGACAUGAGGAUCACCCAUGUAGCCGUCCGUAGACGGCG [salish99_SSNG1_r04_001] (Eterna round: R96, puzzle: Same State NG 1)
Input ligand: FMN 200 uM
  apparent KD of MS2 coat protein: 302 nM
[4]
  apparent KD of MS2 coat protein: 38.9 nM
Input ligand: none
  apparent KD of MS2 coat protein: 238 nM

## UGAAUGGUGAUAGGAUAUACAUGAGGAAUCCUCGUAGAAGGAUCAUGACAUGAGGAUCACCCAUGUAGCCGUCCGUAGACGGCA [JL SSNG1 1.22] (Eterna round: R96, puzzle: Same State NG 1)
Input ligand: FMN 200 uM
  apparent KD of MS2 coat protein: 140 nM
[4]
  apparent KD of MS2 coat protein: 22.1 nM
Input ligand: none
  apparent KD of MS2 coat protein: 351 nM

## UGCCUGAGUCGAGGAUAUUAUGGAUCAAUUAAUACAUGAGGAUCACCCAUGUAAUUAAUUUAACAUGAGAAGGUGACUCAGGCU [SSNG2/10-B3] (Eterna round: R96, puzzle: Same State NG 2)
[4]
  apparent KD of MS2 coat protein: 8.4 nM

## UGGAUCUAGGCUUGCCUGGGUCCAUGUUGACAUGAGGAUCACCCAUGUGUAUUCUAUAAGCUUUUUGUUUGUCAACU (puzzle: Sensor for hsa-mir-208a)
[1]
  apparent KD of MS2 coat protein: 62.5 nM
[2]
  apparent KD of MS2 coat protein: 23.3 nM
[3]
  apparent KD of MS2 coat protein: 130 nM

## UGGAUCUAGGCUUGCCUGGGUCCAUGUUGACAUGAGGAUCACCCAUGUGUAUUUUUUAAGCUUUUUGUUUGUCAACA [JL A Humble Attempt mod 6] (puzzle: Sensor for hsa-mir-208a)
[1]
  apparent KD of MS2 coat protein: 42.4 nM
[2]
  apparent KD of MS2 coat protein: 13.2 nM
[3]
  apparent KD of MS2 coat protein: 42.5 nM

## UGGAUCUAGGCUUGCCUGGGUCCAUGUUGACAUGAGGAUCACCCAUGUGUAUUUUUUUAGCUUUUUGUUUGUCAACA [JL A Humble Attempt mod 5] (puzzle: Sensor for hsa-mir-208a)
[1]
  apparent KD of MS2 coat protein: 39 nM
[2]
  apparent KD of MS2 coat protein: 15.1 nM
[3]
  apparent KD of MS2 coat protein: 41.1 nM

## UGGAUCUAGGCUUGCCUGGGUCCAUGUUGACAUGAGGAUCACCCAUGUGUAUUUUUUUUGCUUUUUGUUUGUCAACU [JL A Humble Attempt mod 11] (puzzle: Sensor for hsa-mir-208a)
[1]
  apparent KD of MS2 coat protein: 25.2 nM
[2]
  apparent KD of MS2 coat protein: 12.7 nM
[3]
  apparent KD of MS2 coat protein: 26.5 nM

## UGGCUCAGACGAGGAUAUAUGUGAUCACAUGAGGAUCACCCAUGUCUCGAGCUUCGGCUCGAGACAUAGAAGGUGUCUGAGCCA [SSNG2/3-C2] (Eterna round: R96, puzzle: Same State NG 2)
Input ligand: FMN 200 uM
  apparent KD of MS2 coat protein: 14.8 nM
[4]
  apparent KD of MS2 coat protein: 96.2 nM
Input ligand: none
  apparent KD of MS2 coat protein: 49.5 nM

## UGGCUCAGACGAGGAUAUGAUCAUGGCGCUUCGGCGCAUACAUGAGGAUCACCCAUGUAAAGUGAUCAGAAGGCGUCUGAGCCU [SSNG2/7-A3] (Eterna round: R96, puzzle: Same State NG 2)
Input ligand: FMN 200 uM
  apparent KD of MS2 coat protein: 14.8 nM
[4]
  apparent KD of MS2 coat protein: 11.1 nM
Input ligand: none
  apparent KD of MS2 coat protein: 15 nM

## UGGCUCAGACGAGGAUAUGAUCAUGGCGCUUCGGCGCAUACAUGAGGAUCACCCAUGUAGGGUGAUCAGAAGGCGUCUGAGCCA [SSNG2/8-A2] (Eterna round: R96, puzzle: Same State NG 2)
Input ligand: FMN 200 uM
  apparent KD of MS2 coat protein: 55.8 nM
[4]
  apparent KD of MS2 coat protein: 413 nM
Input ligand: none
  apparent KD of MS2 coat protein: 460 nM

## UGGCUCAGAGCAGGAUAUACGUGGUCACAUGAGGAUCACCCAUGUCUCGAGCUUCGGCUCGAGGCGUAGAAGGGCUCUGAGCCU [SSNG2/6-B3] (Eterna round: R96, puzzle: Same State NG 2)
Input ligand: FMN 200 uM
  apparent KD of MS2 coat protein: 118 nM
[4]
  apparent KD of MS2 coat protein: 131 nM
Input ligand: none
  apparent KD of MS2 coat protein: 258 nM
